In series [1] the test system is S. uberis GCC ST-143 biofilm. Description: Biofilm eradication assay. The series is classed as cell-based, Streptococcus uberis. Conditions: 1.5 μM, 2 h30, 37° C. How it is done:
Biofilms were grown by transferring mid-log phase bacteria (OD600=0.6) grown in brain heart infusion (BHI) (Oxoid, Belgium) containing 0.25% α-D-glucose (ThermoFisher Scientific, USA) to a nunclon delta-treated, U-shaped-bottom 96-well microplate (ThermoFisher Scientific, USA). This whole was incubated for 21-24 h in a box containing a wet tissue. Subsequently, media and planktonic cells were removed and 1.5 µM of chimeric endolysin was allowed to eradicate the biofilms during 2 h30 at 37° C. on a shaker at 120 rpm. […] Biomass was fixated with 100% ethanol (ThermoFisher Scientific, USA) and stained with crystal violet (0.1% crystal violet (Sigma-Aldrich, USA), 5% methanol and isopropanol (ThermoFisher Scientific, USA) in PBS. Triple washing with PBS by inverting the plate was executed before solubilizing the stained biomass in 30% acetic acid (Chem-Lab, Belgium). OD590 nm was measured using a CLARIOstar Plus plate reader (BMG Labtech, The Netherlands). Logarithmic reductions were determined by scraping biomass from the wells with a sterile tooth picker followed by resuspension in PBS, which was subsequently serially diluted and spotted on BHI-agar. CFU/mL were counted after overnight incubation at 37° C.

For a further series, the system named is MAC-T cells. The series is classed as cell-based, bovine. The settings on record: 2.5 μM. As to the method:
MAC-T cells were seeded in a 6-well plate at 300.000 cells/well and grown to 100% confluency. Next, cell culture medium was replaced by prewarmed NC5 in DMEM (buffer exchange performed at 4-8° C. by means of a Pierce™ Protein Concentrator PES 10 kDa MWCO) and allowed to incubate during 1 h at 37° C. and 5.0% CO2. DMEM alone served as the negative control. Following incubation, the supernatant was aspirated and cells were washed 5× with prewarmed dPBS. Cells were then harvested, pelleted and washed as previously described, followed by lysis in ice-cold 0.1% triton X-100 (Sigma-Aldrich, USA) in dPBS. The cell lysates were denaturized and subjected to SDS-PAGE before blotting to a nitrocellulose membrane (Novolab, Belgium). The membrane was thereafter incubated during 1 h in dPBSM5 as blocking buffer. Subsequently, the primary antibody being mouse monoclonal IgG anti-HIS5 (Sigma-Aldrich, USA) was added to the blocking buffer at 1:2000 and allowed to incubate under the same conditions for another hour. The nitrocellulose membrane was then washed 3× with dPBST and incubated during 30 min with the secondary antibody being HRP conjugated goat monoclonal anti-mouse IgG (ImTec Diagnostics, Belgium) diluted 1:1000 in dPBST. […]

B1: NC5: chimeric endolysin SEQ ID NO: 17; HIV-1 TAT + PlySs2 CHAP + Ply1081 CW_7 + PlySs9 amidase_3 (protein)
chain: MYGRKKRRQRRRGATTVNEALNNVRAQVGSGVSVGNGECYALASWYERMISPDATVGLGAGVGWVSGAIGDTISAKNIGSSYNWQANGWTVSTSGPFKAGQIVTLGATPGNPYGHVVIVEAVDGDRLTILEQNYGGKRYPVRNYYSAASYRQQVVHYITPPGTVAQSAPNLAGAGIDQLVQETLAGKYGNGEQRKAALGSQYQAVMAVINGKATAPKKTVDQLAQEVIQGKHGNGEDRKKSLGPDYDAVQKRVTEILKGSPSGNIPKTPSDAPKSEVVNSSTEPKTEETGANGKATDTKITKGSGKHLVICGHGQGRTGYDPGAVNAKLGITEAGKVRELSKLMSKYSGQQIDFITEQNVYDYRSITSIGKGYDSITELHFNAFNGSAKGTEVLIQSSLEADKEDMAILSLLSRYFQNRGIKKVDWLYNANQAASRGYTYRLVEIAFIDNEQDMAIFENKKEDIAKGLVSAITGVEVKTIVPSPPSSTVGSSGTPSKSIYLVGDSLRVLPHATHYQTGQKIANWVKGRTYKILQVKNVHQSNSKRAYLLDGIKSWVLEQDVEGTTKGHSKYHHHHHH
In the case of B1, in series [1], the “reduction of biofilm mass (crystal violet)” value is on record as “significant (p<0.001) reduction of the biofilm mass” and the “Δ Log10 reduction of biofilm CFU” value was 1.17±0.39 Log10. The “stability after incubation with MAC-T cells (SDS-PAGE of supernatant)” value in the series on MAC-T cells was “neither disintegrated nor precipitated after incubation with MAC-T cells”.

(Values after patent publication US20260275317A1, “CHIMERIC ENDOLYSINS WITH ACTIVITY AGAINST STREPTOCOCCI AND STAPHYLOCOCCI” (UNIVERSITEIT GENT, priority 2023, published 2026).)
